In this assay the target is 3M2e-ferritin nanoparticle (three copies of M2e of H1N1 influenza virus fused to the N terminus of H. pylori ferritin) (influenza A virus H1N1 | Helicobacter pylori). In words: native gel or EMSA. (In general: Mobility shift assays separate free from complexed probe on a gel.)

In general, stoichiometry N refers to the number of molecules, sites or subunits per partner or assembly. With “3M2e-ferritin nanoparticle (three copies of M2e of H1N1 influenza virus fused to the N terminus of H. pylori ferritin)”, the stoichiometry N worked out at 24.

The record behind these values is PMC10269571.
